Columns and labels:
[1] = target: T1, PIN1 (Arabidopsis thaliana, UniProt Q9C6B8); assay: [3H]IAA efflux assay in HEK293F cells; assay type: cell-based
T1 sequence (Q9C6B8 1-622): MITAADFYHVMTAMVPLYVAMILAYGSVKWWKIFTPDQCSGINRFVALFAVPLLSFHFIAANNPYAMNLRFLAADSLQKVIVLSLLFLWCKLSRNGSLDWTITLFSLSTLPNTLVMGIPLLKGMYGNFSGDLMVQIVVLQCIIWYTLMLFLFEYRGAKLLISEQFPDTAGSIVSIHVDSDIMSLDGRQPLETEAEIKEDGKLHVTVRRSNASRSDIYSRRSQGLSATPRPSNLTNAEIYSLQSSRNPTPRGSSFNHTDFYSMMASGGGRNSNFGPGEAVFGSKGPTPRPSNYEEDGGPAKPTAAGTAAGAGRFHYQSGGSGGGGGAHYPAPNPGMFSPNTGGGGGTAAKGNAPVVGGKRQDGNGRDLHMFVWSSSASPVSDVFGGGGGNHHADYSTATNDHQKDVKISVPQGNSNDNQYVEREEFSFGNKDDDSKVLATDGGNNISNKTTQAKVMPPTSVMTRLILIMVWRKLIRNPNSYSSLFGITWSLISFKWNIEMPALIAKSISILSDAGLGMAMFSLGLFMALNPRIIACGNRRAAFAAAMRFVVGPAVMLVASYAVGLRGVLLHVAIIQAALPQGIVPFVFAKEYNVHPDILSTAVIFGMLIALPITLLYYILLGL
T1 sequence (Q9FG74 1-498 partner): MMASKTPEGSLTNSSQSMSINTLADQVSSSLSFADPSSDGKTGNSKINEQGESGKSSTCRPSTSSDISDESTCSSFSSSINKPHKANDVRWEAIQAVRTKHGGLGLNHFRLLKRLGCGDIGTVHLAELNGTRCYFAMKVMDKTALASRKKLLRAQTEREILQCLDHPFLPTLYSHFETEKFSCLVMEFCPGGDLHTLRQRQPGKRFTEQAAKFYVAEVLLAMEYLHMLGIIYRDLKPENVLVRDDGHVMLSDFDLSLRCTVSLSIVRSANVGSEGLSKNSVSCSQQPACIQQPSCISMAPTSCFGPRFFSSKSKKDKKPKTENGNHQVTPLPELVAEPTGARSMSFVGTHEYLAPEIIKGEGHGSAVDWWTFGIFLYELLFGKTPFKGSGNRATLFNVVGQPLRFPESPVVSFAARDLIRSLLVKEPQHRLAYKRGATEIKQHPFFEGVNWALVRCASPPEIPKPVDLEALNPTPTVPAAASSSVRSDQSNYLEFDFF

[2] = target: the molecule itself; assay: cryo-EM structure
[3] = target: Arabidopsis thaliana PIN-FORMED 1 (PIN1) auxin transporter (Arabidopsis thaliana, UniProt Q9C6B8); assay: cryo-EM structure

In the case of O=C(O)Cc1c[nH]c2ccccc12 [IAA, indole-3-acetic acid], the “[3H]IAA efflux assay in HEK293F cells” value [1] is reported as “had much lower retention of [^3H]-IAA than cells transfected with the empty vector”.

B1: Arabidopsis thaliana PIN-FORMED 1 (PIN1) auxin transporter (natural protein)
chain: MITAADFYHVMTAMVPLYVAMILAYGSVKWWKIFTPDQCSGINRFVALFAVPLLSFHFIAANNPYAMNLRFLAADSLQKVIVLSLLFLWCKLSRNGSLDWTITLFSLSTLPNTLVMGIPLLKGMYGNFSGDLMVQIVVLQCIIWYTLMLFLFEYRGAKLLISEQFPDTAGSIVSIHVDSDIMSLDGRQPLETEAEIKEDGKLHVTVRRSNASRSDIYSRRSQGLSATPRPSNLTNAEIYSLQSSRNPTPRGSSFNHTDFYSMMASGGGRNSNFGPGEAVFGSKGPTPRPSNYEEDGGPAKPTAAGTAAGAGRFHYQSGGSGGGGGAHYPAPNPGMFSPNTGGGGGTAAKGNAPVVGGKRQDGNGRDLHMFVWSSSASPVSDVFGGGGGNHHADYSTATNDHQKDVKISVPQGNSNDNQYVEREEFSFGNKDDDSKVLATDGGNNISNKTTQAKVMPPTSVMTRLILIMVWRKLIRNPNSYSSLFGITWSLISFKWNIEMPALIAKSISILSDAGLGMAMFSLGLFMALNPRIIACGNRRAAFAAAMRFVVGPAVMLVASYAVGLRGVLLHVAIIQAALPQGIVPFVFAKEYNVHPDILSTAVIFGMLIALPITLLYYILLGL
B1: binds [2].

B2: synthetic nanobody sybody-19 (VHH)
VHH: QVQLVESGGGLVQAGGSLRLSCAASGFPVDITWMEWYRQAPGKEREWVAAIYSSGQSTWYADSVKGRFTISRDNAKNTVYLQMNSLKPEDTAVYYCRVKVGAWYKGQGTQVTVSA
B2: binds [3].
